Assay results taken from publication PMC3963969.

Target: Rad4/Cut5 (UniProt P32372)
Experiment: anti-HA IP of Rad9, anti-Rad4 blot
Conditions: reference: wild-type Rad9; sites T412

Rad9 (from UniProt P26306) Rad9-T412A
binding against the reference: lost
